Measurements: patent US20180339020A1

Target: ephrin B3 expressed on CHO cells
Assay: inferred by the filing from ELISA, Octet and flow cytometry taken together

## wild-type (WT) human EphA4-Fc (Fc fusion)
  concentration that would saturate: > 10 µg/mL
